Measurements: publication PMC7293033

Columns and labels:
[1] = target: GST-UAP56 (human) (UniProt Q13838); assay: SPR; UAP56 with API5, FGF2, the API5–FGF2 complex or PBK as analyte proteins; purified recombinant proteins
[2] = target: His-API5 (apoptosis inhibitor 5, residues 1-504, isoform 2), wild type (human); assay: SPR; purified recombinant His-API5 and His-FGF2; who was immobilised is not given in the source
[3] = target: His-API5 3Mut (E184A/D185A/E190A) (human); assay: as above
[4] = target: His-API5 (apoptosis inhibitor 5, residues 1-504, isoform 2), wild type; assay: SPR; settings: concentration series 0.13, 0.25, 0.50, 1.0, 2.0, 4.0, 8.0, 16 µM
[5] = target: His-FGF2, LMW FGF2 (residues 135-288, C211S/C229S) (UniProt P09038); assay: SPR; settings: concentration series 0.031, 0.063, 0.13, 0.25, 0.50, 1.0, 2.0, 4.0, 8.0, 16 µM
His-FGF2, LMW FGF2 (residues 135-288, C211S/C229S), sequence (P09038 135-288 C211S/C229S): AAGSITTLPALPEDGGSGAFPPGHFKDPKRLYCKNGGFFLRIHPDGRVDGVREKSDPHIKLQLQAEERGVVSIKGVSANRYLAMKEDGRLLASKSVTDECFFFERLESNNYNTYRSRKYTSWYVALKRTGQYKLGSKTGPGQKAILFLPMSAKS

GST-UAP56 (human), sequence (Q13838 whole entry, the tested form may be a part, canonical isoform): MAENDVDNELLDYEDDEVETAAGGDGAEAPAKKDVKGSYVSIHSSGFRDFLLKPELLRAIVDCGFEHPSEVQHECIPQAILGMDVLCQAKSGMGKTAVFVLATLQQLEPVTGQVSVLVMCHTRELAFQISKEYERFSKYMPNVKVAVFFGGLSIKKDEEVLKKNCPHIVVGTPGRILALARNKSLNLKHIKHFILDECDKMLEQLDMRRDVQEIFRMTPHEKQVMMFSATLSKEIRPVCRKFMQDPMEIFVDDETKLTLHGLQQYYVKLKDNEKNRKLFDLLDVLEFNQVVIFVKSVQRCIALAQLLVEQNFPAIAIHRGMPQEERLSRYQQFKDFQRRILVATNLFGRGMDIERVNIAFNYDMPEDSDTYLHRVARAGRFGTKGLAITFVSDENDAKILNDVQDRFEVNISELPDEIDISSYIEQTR

Row | Substance | Kd [1] | Kd [2] | Kd [3] | further results
1 | API5–FGF2 complex (His-API5 with His-LMW FGF2) (from UniProt P09038 135-288) | 199 nM | – | – | –
2 | His-FGF2 Mut (C211S/C229S/R262A/T263A/K271A) (from UniProt P09038 135-288) (natural protein) | – | 1510 nM | 17300 nM | –
3 | His-FGF2, LMW FGF2 (residues 135-288, C211S/C229S) (from UniProt P09038) R262A; T263A; K271A | – | – | – | kon [4]: 1660 M⁻¹ s⁻¹
4 | His-FGF2, LMW FGF2 (residues 135-288, C211S/C229S) (from UniProt P09038 135-288) (natural protein) | – | 676 nM | 4200 nM | –
5 | His-API5 (apoptosis inhibitor 5, residues 1-504, isoform 2), wild type (natural protein) | 1370 nM | – | – | –
6 | His-API5 (apoptosis inhibitor 5, residues 1-504, isoform 2), wild type E184A; D185A; E190A | – | – | – | kon [5]: 2260 M⁻¹ s⁻¹
